Where a chain is given by its changes, count along the chain named. Names may count otherwise.
B1: MTSP-1 Q38H/I41A/D60bV/F60eR/Y60gW/ins97aE/F97T/T98G/F99L/C122S/Q175L/Q192D (enzyme)
chain: VVGGTDADEGEWPWQVSLHALGHGHACGASLISPNWLVSAAHCYIDVRGRRWSDPTQWTAFLGLHDQSQRSAPGVQERRLKRIISHPFFNDTEGLDYDIALLELEKPAEYSSMVRPISLPDASHVFPAGKAIWVTGWGHTQYGGTGALILQKGEIRVINQTTCENLLPQLITPRMMCVGFLSGGVDSCDGDSGGPLSSVEADGRIFQAGVVSWGDGCAQRNKPGVYTRLPLFRDWIKENTGV
B2: MTSP-1 Q38H/I41A/D60bA/F60eR/F97T/ins97aE/T98G/F99L/C122S/Q175L/Q192E (enzyme)
chain: B1 chain with V47A, W52Y, D189E
B3: MTSP-1 F97D/ins97aV/T98P/F99L/C122S/G151N/Q175L/Q192E (enzyme)
chain: B1 chain with H23Q, A26I, V47D, R50F, W52Y, T92D, E93V, G94P, G146N, D189E
B4: MTSP-1 ins97aV/F97D/T98P/F99L/C122S/G151N/Q175L/Q192G (enzyme)
chain: B1 chain with H23Q, A26I, V47D, R50F, W52Y, T92D, E93V, G94P, G146N, D189G
B5: MTSP-1 Q38G/H40R/I41H/D60bN/F60eT/F97D/F99L/C122S/Q175L/Q192G (enzyme)
chain: VVGGTDADEGEWPWQVSLHALGGGRHCGASLISPNWLVSAAHCYIDNRGTRYSDPTQWTAFLGLHDQSQRSAPGVQERRLKRIISHPFFNDDTLDYDIALLELEKPAEYSSMVRPISLPDASHVFPAGKAIWVTGWGHTQYGGTGALILQKGEIRVINQTTCENLLPQLITPRMMCVGFLSGGVDSCGGDSGGPLSSVEADGRIFQAGVVSWGDGCAQRNKPGVYTRLPLFRDWIKENTGV
B6: MTSP-1 Q38G/H40R/I41H/D60bK/F60eT/F97D/F99L/C122S/Q175L/Q192G (enzyme)
chain: B5 chain with N47K
B7: MTSP-1 Q38E/H40R/I41H/D60bK/F60eT/F97D/F99L/C122S/Q175L/Q192G (enzyme)
chain: B5 chain with G23E, N47K
B8: MTSP-1 Q38H/I41S/D60bA/F60eV/Y60gF/ins97aE/F97T/T98G/F99L/C122S/G151N/Q175L/Q192T (enzyme)
chain: B1 chain with A26S, V47A, R50V, W52F, G146N, D189T
B9: MTSP-1 Q38E/I41S/D60bH/F60eI/ins97aE/F97T/T98G/F99L/C122S/G151N/Q175L/Q192V (enzyme)
chain: B1 chain with H23E, A26S, V47H, R50I, W52Y, G146N, D189V
B10: MTSP-1 Q38R/I41S/D60bH/F60eI/ins97aE/F97T/T98G/F99L/C122S/G151N/Q175L/Q192E (enzyme)
chain: B1 chain with H23R, A26S, V47H, R50I, W52Y, G146N, D189E
B11: MTSP-1 Q38E/I41S/D60bV/F60eK/ins97aE/F97T/T98G/F99L/C122S/G151N/Q175L/Q192I (enzyme)
chain: B1 chain with H23E, A26S, R50K, W52Y, G146N, D189I
B12: MTSP-1 Q38R/I41E/ins97aE/F97T/T98G/F99L/C122S/G151N/Q175L/Q192T (enzyme)
chain: B1 chain with H23R, A26E, V47D, R50F, W52Y, G146N, D189T
B13: MTSP-1 Q38H/I41A/D60bV/F60eR/Y60gW/ins97aE/F97T/T98G/F99L/C122S/G151N/Q175L/Q192D (enzyme)
chain: B1 chain with G146N
B14: MTSP-1 Q38H/I41A/D60bA/F60eR/ins97aE/F97T/T98G/F99L/C122S/G151N/Q175L/Q192E (enzyme)
chain: B1 chain with V47A, W52Y, G146N, D189E
B15: MTSP-1 Q38H/I41S/D60bT/F60eS/ins97aV/F97D/T98P/F99L/C122S/G151H/Q175L/Q192E (enzyme)
chain: B1 chain with A26S, V47T, R50S, W52Y, T92D, E93V, G94P, G146H, D189E
B16: MTSP-1 Q38H/I41S/D60bV/F60eQ/Y60gF/ins97aE/F97T/T98G/F99L/C122S/Q175L/Q192I (enzyme)
chain: VVGGTDADEGEWPWQVSLHALGHGHSCGASLISPNWLVSAAHCYIDVRGQRFSDPTQWTAFLGLHDQSQRSAPGVQERRLKRIISHPFFNDTEGLDYDIALLELEKPAEYSSMVRPSLPDASHVFPAGKAIWVTGWGHTQYGGTGALILQKGEIRVINQTTCENLLPQLITPRMMCVGFLSGGVDSCIGDSGGPLSSVEADGRIFQAGVVSWGDGCAQRNKPGVYTRLPLFRDWIKENTGV
B17: MTSP-1 Q38H/I41A/D60bV/F60eI/ins97aE/F97T/T98G/F99L/C122S/Q175L/Q192E (enzyme)
chain: B1 chain with R50I, W52Y, D189E
B18: MTSP-1 Q38H/I41A/D60bV/F60eT/Y60gW/ins97aE/F97T/T98G/F99L/C122S/Q175L/Q192E (enzyme)
chain: B1 chain with R50T, D189E
B19: MTSP-1 Q38H/I41A/F60eA/Y60gW/ins97aE/F97T/T98G/F99L/C122S/Q175L/Q192E (enzyme)
chain: B1 chain with V47D, R50A, D189E
B20: MTSP-1 Q38H/I41A/D60bE/F60eH/Y60gW/ins97aE/F97T/T98G/F99L/C122S/Q175L/Q192D (enzyme)
chain: B1 chain with V47E, R50H
B21: MTSP-1 Q38H/I41A/D60bT/F60eK/Y60gW/ins97aE/F97T/T98G/F99L/C122S/Q175L/Q192D (enzyme)
chain: B1 chain with V47T, R50K
B22: MTSP-1 Q38H/I41A/D60bT/F60eH/Y60gW/ins97aE/F97T/T98G/F99L/C122S/Q175L/Q192D (enzyme)
chain: B1 chain with V47T, R50H
B23: MTSP-1 Q38H/I41S/D60bS/F60eR/Y60gW/F97T/ins97aE/T98G/F99L/C122S/Q175L/Q192E (enzyme)
chain: B1 chain with A26S, V47S, D189E
B24: MTSP-1 Q38H/I41S/D60bT/F60eS/F97D/ins97aV/T98P/F99L/C122S/G151H/Q175L/Q192D (enzyme)
chain: B1 chain with A26S, V47T, R50S, W52Y, T92D, E93V, G94P, G146H
B25: MTSP-1 Q38R/I41T/ins97aE/F97T/T98G/F99L/C122S/G151N/Q175L/Q192G (enzyme)
chain: B1 chain with H23R, A26T, V47D, R50F, W52Y, G146N, D189G
B26: MTSP-1 Q38S/I41S/F60eR/F97T/ins97aE/T98G/F99L/C122S/G151N/Q175L/Q192S (enzyme)
chain: B1 chain with H23S, A26S, V47D, W52Y, G146N, D189S

Target: plasma purified human complement protein C3 (human) (UniProt P01024)
Sequence (P01024 23-667, chain 1 of 2): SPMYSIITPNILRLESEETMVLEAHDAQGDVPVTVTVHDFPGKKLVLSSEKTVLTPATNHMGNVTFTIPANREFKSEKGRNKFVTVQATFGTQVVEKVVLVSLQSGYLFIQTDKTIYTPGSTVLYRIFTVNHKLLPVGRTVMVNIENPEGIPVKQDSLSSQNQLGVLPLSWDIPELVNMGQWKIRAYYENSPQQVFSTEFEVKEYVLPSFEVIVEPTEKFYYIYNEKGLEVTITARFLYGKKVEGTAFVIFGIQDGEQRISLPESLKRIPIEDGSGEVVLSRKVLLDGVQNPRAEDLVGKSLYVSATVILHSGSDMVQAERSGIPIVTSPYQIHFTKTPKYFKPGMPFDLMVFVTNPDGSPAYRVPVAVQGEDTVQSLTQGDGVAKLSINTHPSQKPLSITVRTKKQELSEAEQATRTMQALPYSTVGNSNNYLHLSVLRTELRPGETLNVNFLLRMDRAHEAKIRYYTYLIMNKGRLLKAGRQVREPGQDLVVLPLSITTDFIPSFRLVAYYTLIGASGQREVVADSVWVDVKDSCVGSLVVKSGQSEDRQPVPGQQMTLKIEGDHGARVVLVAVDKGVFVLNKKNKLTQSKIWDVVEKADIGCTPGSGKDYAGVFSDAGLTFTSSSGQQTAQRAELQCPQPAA
Sequence (P01024 672-1663, chain 2 of 2): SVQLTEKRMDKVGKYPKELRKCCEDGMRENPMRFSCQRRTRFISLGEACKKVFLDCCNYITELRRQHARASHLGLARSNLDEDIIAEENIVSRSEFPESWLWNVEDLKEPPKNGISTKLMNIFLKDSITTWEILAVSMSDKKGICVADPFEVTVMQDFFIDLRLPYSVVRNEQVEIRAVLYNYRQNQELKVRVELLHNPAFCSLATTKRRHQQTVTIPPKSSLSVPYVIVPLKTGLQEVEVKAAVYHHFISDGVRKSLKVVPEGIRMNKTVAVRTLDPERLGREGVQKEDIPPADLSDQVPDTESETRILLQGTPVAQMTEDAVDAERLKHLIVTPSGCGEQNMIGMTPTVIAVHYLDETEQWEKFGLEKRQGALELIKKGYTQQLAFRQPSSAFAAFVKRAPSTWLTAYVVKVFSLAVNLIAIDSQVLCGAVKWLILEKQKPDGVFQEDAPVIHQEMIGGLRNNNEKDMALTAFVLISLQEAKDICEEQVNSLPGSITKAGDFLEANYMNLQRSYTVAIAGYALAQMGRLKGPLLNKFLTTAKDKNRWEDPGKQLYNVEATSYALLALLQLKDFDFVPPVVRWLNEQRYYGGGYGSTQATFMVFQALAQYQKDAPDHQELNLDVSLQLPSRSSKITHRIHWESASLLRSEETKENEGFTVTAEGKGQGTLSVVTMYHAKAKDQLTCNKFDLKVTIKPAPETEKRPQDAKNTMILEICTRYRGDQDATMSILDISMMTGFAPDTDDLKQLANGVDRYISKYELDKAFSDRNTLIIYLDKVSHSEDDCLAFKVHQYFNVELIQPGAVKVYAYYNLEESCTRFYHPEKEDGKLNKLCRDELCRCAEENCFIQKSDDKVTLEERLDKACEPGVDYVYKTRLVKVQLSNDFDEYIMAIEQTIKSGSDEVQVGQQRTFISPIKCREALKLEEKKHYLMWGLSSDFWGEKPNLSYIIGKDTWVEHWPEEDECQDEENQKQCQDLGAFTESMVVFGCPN
Assay: cell-based or functional assay

Binder | EC50 of hC3 cleavage [nM]
B1 | 2.37
B2 | 12
B3 | 194
B4 | 38.5
B5 | 11.9
B6 | 21.3
B7 | 16.6
B8 | 14.2
B9 | 11.5
B10 | 32.9
B11 | 19.1
B12 | 105
B13 | 7.74
B14 | 14.2
B15 | 29.8
B16 | 5.95
B17 | 7.64
B18 | 1.39
B19 | 5.93
B20 | 5.38
B21 | 3.82
B22 | 2.28
B23 | 8.35
B24 | 45.4
B25 | 30.6
B26 | 6.26
